The target of the test is T1, VTN (vitronectin) (Homo sapiens (Human), UniProt P04004).
T1 chain: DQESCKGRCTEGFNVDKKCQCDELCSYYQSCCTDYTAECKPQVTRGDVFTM
Nature of the test: SPR; Mg2+/Ca2+/Mn2+ buffer, 37 °C 1 mM MgCl2, 1 mM CaCl2, 2 mM MnCl2 in SPR buffer.

Broadly, the Kd is the free concentration of one partner at which half of the binding sites on the other are occupied at equilibrium, for simple one-to-one binding.

B1: integrin αvβ3 (rhαvβ3) (protein)
chain 1: FNLDVDSPAEYSGPEGSYFGFAVDFFVPSASSRMFLLVGAPKANTTQPGIVEGGQVLKCDWSSTRRCQPIEFDATGNRDYAKDDPLEFKSHQWFGASVRSKQDKILACAPLYHWRTEMKQEREPVGTCFLQDGTKTVEYAPCRSQDIDADGQGFCQGGFSIDFTKADRVLLGGPGSFYWQGQLISDQVAEIVSKYDPNVYSIKYNNQLATRTAQAIFDDSYLGYSVAVGDFNGDGIDDFVSGVPRAARTLGMVYIYDGKNMSSLYNFTGEQMAAYFGFSVAATDINGDDYADVFIGAPLFMDRGSDGKLQEVGQVSVSLQRASGDFQTTKLNGFEVFARFGSAIAPLGDLDQDGFNDIAIAAPYGGEDKKGIVYIFNGRSTGLNAVPSQILEGQWAARSMPPSFGYSMKGATDIDKNGYPDLIVGAFGVDRAILYRARPVITVNAGLEVYPS
chain 2: GPNICTTRGVSSCQQCLAVSPMCAWCSDEALPLGSPRCDLKENLLKDNCAPESIEFPVSEARVLEDRPLSDKGSGDSSQVTQVSPQRIALRLRPDDSKNFSIQVRQVEDYPVDIYYLMDLSYSMKDDLWSIQNLGTKLATQMRKLTSNLRIGFGAFVDKPVSPYMYISPPEALENPCYDMKTTCLPMFGYKHVLTLTDQVTRFNEEVKKQSVSRNRDAPEGGFDAIMQATVCDEKIGWRNDASHLLVFTTDAKTHIALDGRLAGIVQPNDGQCHVGSDNHYSASTTMDYPSLGLMTEKLSQKNINLIFAVTENVVNLYQNYSELIPGTTVGVLSMDSSNVLQLIVDAYGKIRSKVELEVRDLPEELSLSFNATCLNNEVIPGLKSCMGLKIGDTVSFSIEAKVRGCPQEKEKSFTIKPVGFKDSLIVQVTFDCDCA
The molecule B1 returned a Kd of 997 nM.

The values are drawn from paper PMC9800282 (2022).
